B1: LX5140110: LOX1-specific monoclonal antibody; VH SEQ ID NO: 4, VL SEQ ID NO: 33 (antibody, V domains shown)
VH: QVQLVQSGAEVKKPGASVKVSCKVSGYTLTELSMHWVRQAPGKGLEWMGGFDPEDFKYHTHQKFQGRVTMTEDTSTDTAYMELSSLRSEDTAVYYCALVWGTQGKGVRGWDYYYGMDVWGQGTTVTVSS
VL: QSVVTQPPSVSGAPGQRVTISCTGSSSNIGAGYDVHWYQQLPGTAPKLLIYGNSNRPSGVPDRFSGSKSGTSASLAITGLQAEDEADYYCQSYDSSLSGWVFGGGTKLTVL
modifications: LX5140110 Heavy Chain sequence; LX5140110 Light Chain sequence

Tests used:
[1] = system: Cytivia cardiomyocytes; assay: Doxorubicin-mediated cardiomyocyte damage (calcium, viability imaging); format: cell-based
Description: Next, we sought to determine if inhibiting LOX1 could block doxorubicin-mediated cardiomyocyte damage. Cytivia™ cardiomyocytes were purchased from GE Healthcare and plated following manufacturer's instructions with the substitution of bovine fibronectin for human fibronectin. Cells were allowed to adhere for 4 days and then medium was changed. At days 5-7, medium was removed and cells were pre-incubated with the indicated concentration of LX5140110 for 4 hours prior to the addition of 5 μM doxorubicin (DOX). After addition of DOX, cells were incubated for a further 24 hours. After incubation, media was removed and cells were stained with DAPI (1:4000 dilution of 1 mg/mL), TOTO-3 (1 uL of dye solution per 1 mL of medium), and 5 μM Fluo-4. Cells were incubated for 1 hour at 37° C. and then imaged on Image on GE IN Cell Analyzer. Viability was determined by obtaining the number of cells excluding DAPI and TOTO-3 dyes while Fluo-4 was used to determine calcium concentrations. It is known that cardiomyocytes show an increase in calcium load during endotoxin induced cardiac dysfunction. (Thompson et al., Pediatric Research (2000) 47: 669-676).

[2] = system: Pan02.13 cells; assay: Percentage of CSCs (EpCAM+CD24+CD44+) in Pan02.13 by flow cytometry; format: cell-based; conditions: 4 days; for effect of single agent on percentage of CSCs: LX5140110 50 μg/mL or gemcitabine 100 ng/mL
From the text: (§1) Given that chemotherapies and even some targeted therapies can enrich for CSCs despite the reductions in tumor burden, combination approaches using a CSC-specific targeted therapy in combination with these agents becomes an attractive approach to treatment of cancer patients. Since LX5140110 targets CSCs specifically, we sought to address the combined effects of the current standard of care chemotherapy for pancreatic cancer, gemcitabine, and LX5140110. First the ability of gemcitabine to inhibit the Pan02.13 was tested. Pan02.13 cells were plated under standard tissue culture conditions with and without 100 ng/mL gemcitabine in a tissue culture coated flat-bottomed plate (n=10). […] To determine the effects of treatments on CSCs, Pan02.13 was treated in standard tissue culture conditions for 4 days with either 50 μg/mL of LX5140110 or a control antibody and with or without 100 ng/mL of gemcitabine (GEM) then analyzed for the percentage of CSCs by flow cytometry. The percentage of CSCs (EpCAM+CD24+CD44+) was determined for each treatment condition. The cells were first gated for single, viable cells using scatter and DAPI. Fluorescence minus one (FMO) controls were utilized for gating, with the EpCAM+population analyzed for CD44 and CD24 expression.

[3] = system: Pan02.13 cells; assay: Pan02.13 cell growth under standard tissue culture conditions; format: cell-based; conditions: 100 ng/mL; P<0.001
From the text: as §1

[4] = system: PA-0143 pancreatic PDX CSCs; assay: Tumor sphere formation of pancreatic PDX model PA-0143; format: cell-based, human; conditions: compared to STEM0268
Description: DARPins showing the preferred binding patterns were screened for their ability to inhibit sphere formation using one of the pancreatic PDX models (PA-0143) used for selections. Briefly, following dissociation of the tumor cells they were plated in 96-well ultra-low attachment plates containing MSCGM with 50 ug/mL DARPins. All DARPins were tested in triplicate. After 4 days plates were read and inhibitory molecules were identified as showing inhibitory activity at least 1 standard deviation (SD) from the mean of the untreated and control DARPin-treated wells. A second assay based on expression of EZH2 in CSCs was also run. We have previously shown in pancreatic cancer that CSCs can be identified based on their high expression of EZH2 and trimethylation of histone 3 on lysine 27 (Van Vlerken L et al. 2013 EZH2 is required for breast and pancreatic cancer stem cell maintenance and can be used as a functional cancer stem cell reporter Stem Cells Transl Med 2(1):43-52). Using HPAC cells, the EZH2 assay was performed as previously described with the inclusion of 50 μg/mL DARPin. […]
STEM0268 inhibits cancer stem cells. […] Briefly, cells were dissociated using 200 units/mL of collagenase IV plated, washed counted and resuspended at 30,000 cells/mL in MSCGM (Lonza) and plated in an ultra-low attachment 6-well plate. […]

[5] = system: colorectal cell lines; assay: Inhibition of CSCs in colorectal cell lines; format: cell-based
[6] = system: PA-0165 pancreatic PDX CSCs; assay: Tumor sphere formation of pancreatic PDX model PA-0165; format: cell-based, human; conditions: compared to STEM0268
Description: STEM0268 inhibits cancer stem cells. […] Briefly, cells were dissociated using 200 units/mL of collagenase IV plated, washed counted and resuspended at 30,000 cells/mL in MSCGM (Lonza) and plated in an ultra-low attachment 6-well plate. Antibodies were added to appropriate wells at 50 μg/mL. Following incubation for 4 days, spheres were harvested, dissociated and replated in a similar manner to generate secondary spheres and assess the ability of CSCs to self-renew. […] Salinomycin (1 μM) served as the positive control in both of these experiments (Gupta P B et al. 2009).

[7] = system: pancreatic cell lines; assay: Inhibition of CSCs in pancreatic cell lines; format: cell-based; conditions: multiple pancreatic cell lines
From the text: To further confirm the ability of a LOX1 inhibitor to inhibit CSC sphere formation, a LOX1-specific monoclonal antibody (mAb), LX5140110, which comprises a VL comprising SEQ ID NO: 33 and a VH comprising SEQ ID NO: 4 (see, e.g., Table 1), was compared to STEM0268 for their ability to inhibit sphere formation in the pancreatic PDX models.

[8] = system: PA-0143 PDX tumors; assay: In vivo study with PA-0143 PDX tumors; parameters: species or system NSG mice
Description: An in vivo study with PA-0143, was run to determine the ability of LX5140110 to inhibit CSCs in vivo. PA-0143 PDX tumors were passaged by trocar implantation of tumor fragments into 6-8 week old NSG mice (NOD.Cg-Prkdc^scid Il2rg^tmIWjl/SzJ) and allowed to grow to −300 mm^3 at which point they were randomized and treated with subcutaneous injections of either a control IgG1 mAb or LX5140110 at 30 mg/kg twice-weekly for 2 weeks (FIG. 8A). […] Twenty-four hours after the last dose of antibodies, tumors were removed from a subset of the mice and analyzed for the percentage of CSCs.

[9] = 4 hours pre-incubation before 5 μM DOX
[10] = 50 μg/mL with 100 ng/mL gemcitabine

| Molecule | viability of cardiomyocytes ([1]; 5 μM DOX, 24 hours) | increase of calcium concentration ([1]; 5 μM DOX, 24 hours, compared to untreated controls) | effect of single agent on percentage of CSCs [2] | cell numbers [3] | inhibition of sphere formation (in words) [4] | effect on DOX-induced accumulation of calcium [1, 9] | effect on DOX-induced decrease of viability [1, 9] | inhibition of CSCs [5] | effect on gemcitabine-induced enrichment of CSCs [2, 10] | percentage of CSCs of viable cells [2, 10] | inhibition of sphere formation (in words) [6] | inhibition of CSCs [7] | tumor growth ([8]; 30 mg/kg subcutaneous twice-weekly for 2 weeks, vs vehicle and control IgG1, P<0.001) | percentage of CSCs in tumors ([8]; 24 hours after last dose, compared to vehicle control) |
| --- | --- | --- | --- | --- | --- | --- | --- | --- | --- | --- | --- | --- | --- | --- |
| COc1cccc2c1C(=O)c1c(O)c3c(c(O)c1C2=O)C[C@@](O)(C(=O)CO)C[C@@H]3O[C@H]1C[C@H](N)[C@H](O)[C@H](C)O1 [DOX, doxorubicin, reference compound] | decreased viability | approximately 2.5 fold | – | – | – | – | – | – | – | – | – | – | – | – |
| Nc1ccn([C@@H]2O[C@H](CO)[C@@H](O)C2(F)F)c(=O)n1 [gemcitabine, reference compound] | – | – | enriched for CSCs | significant reduction in cell numbers | – | – | – | – | – | – | – | – | – | – |
| B1 | – | – | slight reduction of CSCs | – | inhibited sphere formation | able to inhibit the accumulation of calcium | reversed | able to inhibit CSCs | inhibited this increase | 0.62% | inhibited sphere formation | able to inhibit CSCs | only slightly reduced tumor growth | significant reduction of CSCs |

Source: patent US11192948B2, “Compositions and methods for inhibiting cancer stem cells” (MedImmune Limited, priority 2015, dated 2021)
